The target of this experiment is H10CLPX Zinc binding domain (CLPXZBD) (human). Briefly: SEC.

From paper doi:10.1101/2020.05.19.105320 come the findings set out here.

As a reminder, the stoichiometry N is the number of molecules, sites or subunits per partner or assembly. “H10CLPX Zinc binding domain (CLPXZBD) (domain or fragment)” displayed a stoichiometry N of 2.

B1: H10PDIP38 (PDIP38 with an N-terminal H10-tag) (natural protein)
chain: SSRNRPEGKVLETVGVFEVPKQNGKYETGQLFLHSIFGYRGVVLFPWQARLYDRDVASAAPEKAENPAGHGSKEVKGKTHTYYQVLIDARDCPHISQRSQTEAVTFLANHDDSRALYAIPGLDYVSHEDILPYTSTDQVPIQHELFERFLLYDQTKAPPFVARETLRAWQEKNHPWLELSDVHRETTENIRVTVIPFYMGMREAQNSHVYWWRYCIRLENLDSDVVQLRERHWRIFSLSGTLETVRGRGVVGREPVLSKEQPAFQYSSHVSLQASSGHMWGTFRFERPDGSHFDVRIPPFSLESNKDEKTPPSGLHW
With B1, the stoichiometry N turned out to be 1.
